# Test results: IntAct's records for PubMed 18809921
# B1: CCAAT/enhancer-binding protein beta (Homo sapiens), P17676 (parent)
# chain: MQRLVAWDPACLPLPPPPPAFKSMEVANFYYEADCLAAAYGGKAAPAAPPAARPGPRPPAGELGSIGDHERAIDFSPYLEPLGAPQAPAPATATDTFEAAPPAPAPAPASSGQHHDFLSDLFSDDYGGKNCKKPAEYGYVSLGRLGAAKGALHPGCFAPLHPPPPPPPPPAELKAEPGFEPADCKRKEEAGAPGGGAGMAAGFPYALRAYLGYQAVPSGSSGSLSTSSSSSPPGTPSPADAKAPPTACYAGAAPAPSQVKSKAKKTVDKHSDEYKIRRERNNIAVRKSRDKAKMRNLETQHKVLELTAENERLQKKVEQLSRELSTLRNLFKQLPEPLLASSGHC
# Variants of: B1
# Conditions: with abc3g_human APOBEC3G
row,effect of a mutation on the interaction,Variant
1,decreasing interaction,S288A
